Assays:
collagen (type III) [1] = target: collagen (type III)
collagen (type III) [2] = target: collagen (type III); remark: listed apart in the source

B1: recombinant Asp-Pallidipin (protein of SEQ ID NO:1) (protein)
chain: DEECELMPPGDNFDLEKYFSIPHVYVTHSRNGPKEQVCREYKTTKNSDGTTTTTLVTSDYKTGGKPYHSELKCTNTPKSGGKGQFSVECEVPNGNGGKKKIHVETSVIATDYKNYALLQSCTKTESGIADDVLLLQTKKEGVDPGVTSVLKSVNWSLDDWFSRSKVNCDNMK
Q: For B1, which attachment of 51Cr-labelled MTLn3 rat mammary tumor cells to collagen-coated wells (cpm) (collagen (type III) [1]) is on record?
A: 1080 cpm

Q: What about the adhesion of metastatic tumor cells to collagen (collagen (type III) [2]) of the same binder?
A: 100 nmol/L

Q: And the collagen-induced aggregation of human platelets in platelet-rich plasma (aggregometer, maximum value) (collagen)?
A: 50 nM
